Where a chain is given by its changes, count along the chain named.
T1: human OX40 on the cell surface (activated human T cells; HeLa_hOx40_NFkB_Luc1 reporter cells) (human, UniProt P43489 29-277)
T1 sequence: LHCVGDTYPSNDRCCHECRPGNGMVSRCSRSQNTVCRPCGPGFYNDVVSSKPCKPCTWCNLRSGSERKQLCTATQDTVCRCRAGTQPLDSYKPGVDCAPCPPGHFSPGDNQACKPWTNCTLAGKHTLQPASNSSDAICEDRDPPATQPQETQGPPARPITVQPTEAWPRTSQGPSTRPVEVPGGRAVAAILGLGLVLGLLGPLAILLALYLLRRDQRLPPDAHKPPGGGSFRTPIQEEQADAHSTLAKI

B1: P1AE8875 OX40(MOXR0916) x FAP(1G1a) 3+1 (bispecific antibody, human IgG1, kappa, L234A L235A)
heavy 1: not shown
heavy 2: EVQLVQSGAEVKKPGASVKVSCKASGYTFTDSYMSWVRQAPGQGLEWIGDMYPDNGDSSYNQKFRERVTITRDTSTSTAYLELSSLRSEDTAVYYCVLAPRWYFSVWGQGTLVTVSSASTKGPSVFPLAPSSKSTSGGTAALGCLVEDYFPEPVTVSWNSGALTSGVHTFPAVLQSSGLYSLSSVVTVPSSSLGTQTYICNVNHKPSNTKVDEKVEPKSCGGGGSGGSGGEVQLVQSGAEVKKPGASVKVSCKASGYTFTDSYMSWVRQAPGQGLEWIGDMYPDNGDSSYNQKFRERVTITRDTSTSTAYLELSSLRSEDTAVYYCVLAPRWYFSVWGQGTLVTVSSASTKGPSVFPLAPSSKSTSGGTAALGCLVEDYFPEPVTVSWNSGALTSGVHTFPAVLQSSGLYSLSSVVTVPSSSLGTQTYICNVNHKPSNTKVDEKVEPKSCDKTHTCPPCPAPEAAGGPSVFLFPPKPKDTLMISRTPEVTCVVVDVSHEDPEVKFNWYVDGVEVHNAKTKPREEQYNSTYRVVSVLTVLHQDWLNGKEYKCKVSNKALGAPIEKTISKAKGQPREPQVCTLPPSRDELTKNQVSLSCAVKGFYPSDIAVEWESNGQPENNYKTTPPVLDSDGSFFLVSKLTVDKSRWQQGNVFSCSVMHEALHNHYTQKSLSLSP
light 1: not shown
light 2: EIVLTQSPATLSLSPGERATLSCRASESVDNYGLSFINWFQQKPGQAPRLLIYGTSNRGSGIPARFSGSGSGTDFTLTISSLEPEDFAVYFCQQSNEVPYTFGGGTKVEIKSSASTKGPSVFPLAPSSKSTSGGTAALGCLVKDYFPEPVTVSWNSGALTSGVHTFPAVLQSSGLYSLSSVVTVPSSSLGTQTYICNVNHKPSNTKVDKKVEPKSC
notes: (2+1)', but its chains are those of a MOXR0916 3+1 molecule ending in EPKSC; Human IgG1 Fc, knob-into-hole, PGLALA; also called MOX0916 3+1; MOXR0916 3+1
B2: P1AE8871 OX40 (CLC563) x FAP (1G1a) (2+1) C-terminal crossfab fusion (bispecific antibody, human IgG1, kappa, L234A L235A)
heavy 1: not shown
heavy 2: not shown
light 1: not shown
light 2: B1 light 2
notes: 2+1 format; Human IgG1 Fc, knob-into-hole, PGLALA; VL-CH1 chain ends in EPKSC; also called CLC-563 2+1
B3: P1AE8872 OX40 (MOXR0916) x FAP (1G1a) (2+1) C-terminal crossfab fusion (bispecific antibody, human IgG1, kappa, L234A L235A)
heavy 1: not shown
heavy 2: EVQLVQSGAEVKKPGASVKVSCKASGYTFTDSYMSWVRQAPGQGLEWIGDMYPDNGDSSYNQKFRERVTITRDTSTSTAYLELSSLRSEDTAVYYCVLAPRWYFSVWGQGTLVTVSSASTKGPSVFPLAPSSKSTSGGTAALGCLVEDYFPEPVTVSWNSGALTSGVHTFPAVLQSSGLYSLSSVVTVPSSSLGTQTYICNVNHKPSNTKVDEKVEPKSCDKTHTCPPCPAPEAAGGPSVFLFPPKPKDTLMISRTPEVTCVVVDVSHEDPEVKFNWYVDGVEVHNAKTKPREEQYNSTYRVVSVLTVLHQDWLNGKEYKCKVSNKALGAPIEKTISKAKGQPREPQVCTLPPSRDELTKNQVSLSCAVKGFYPSDIAVEWESNGQPENNYKTTPPVLDSDGSFFLVSKLTVDKSRWQQGNVFSCSVMHEALHNHYTQKSLSLSP
light 1: not shown
light 2: B1 light 2
notes: 2+1 format; Human IgG1 Fc, knob-into-hole, PGLALA; VL-CH1 chain ends in EPKSC; also called MOX0916 2+1; MOXR0916 2+1
B4: P1AE8874 OX40 (CLC563) x FAP (1G1a) (3+1) C-terminal crossfab fusion (bispecific antibody, human IgG1, kappa, L234A L235A)
heavy 1: not shown
heavy 2: not shown
light 1: not shown
light 2: B1 light 2
notes: 3+1 format; Human IgG1 Fc, knob-into-hole, PGLALA; VL-CH1 chain ends in EPKSC; also called CLC-563 3+1
B5: P1AD3690 untargeted tetravalent OX40 (49B4) antigen binding molecule (4+0) (antibody, V domains shown)
VH: QVQLVQSGAEVKKPGSSVKVSCKASGGTFSSYAISWVRQAPGQGLEWMGGIIPIFGTANYAQKFQGRVTITADKSTSTAYMELSSLRSEDTAVYYCAREYYRGPYDYWGQGTTVTVSS
VL: DIQMTQSPSTLSASVGDRVTITCRASQSISSWLAWYQQKPGKAPKLLIYDASSLESGVPSRFSGSGSGTEFTLTISSLQPDDFATYYCQQYSSQPYTFGQGTKVEIK
B6: P1AE1116 GITR(852.2) x FAP (4B9) (2+1) C-terminal crossfab fusion (bispecific antibody, human IgG1, kappa, L234A L235A)
heavy 1: not shown
heavy 2: EVQLVESGGGLVQPGGSLRLSCAASGFTFSSYTMKWVRQTPGKGLEWVSVISADGGTTDHAASVKGRFTVSRDNSKNMLYLQMNSLRAEDTAIYYCAKDRANDWITGASFDYWGQGALVTVSSASTKGPSVFPLAPSSKSTSGGTAALGCLVEDYFPEPVTVSWNSGALTSGVHTFPAVLQSSGLYSLSSVVTVPSSSLGTQTYICNVNHKPSNTKVDEKVEPKSCDKTHTCPPCPAPEAAGGPSVFLFPPKPKDTLMISRTPEVTCVVVDVSHEDPEVKFNWYVDGVEVHNAKTKPREEQYNSTYRVVSVLTVLHQDWLNGKEYKCKVSNKALGAPIEKTISKAKGQPREPQVCTLPPSRDELTKNQVSLSCAVKGFYPSDIAVEWESNGQPENNYKTTPPVLDSDGSFFLVSKLTVDKSRWQQGNVFSCSVMHEALHNHYTQKSLSLSP
light 1: DIQMTQSPSSLSASVGDRVTITCRASQSINSYLNWYQQKPGNAPKLLIYAASSLQSGVPSRFSGSGSGTEFTLTISSLQPEDLATYYCQQARSFPLTFGGGTKVEIKRTVAAPSVFIFPPSDRKLKSGTASVVCLLNNFYPREAKVQWKVDNALQSGNSQESVTEQDSKDSTYSLSSTLTLSKADYEKHKVYACEVTHQGLSSPVTKSFNRGEC
light 2: EIVLTQSPGTLSLSPGERATLSCRASQSVTSSYLAWYQQKPGQAPRLLINVGSRRATGIPDRFSGSGSGTDFTLTISRLEPEDFAVYYCQQGIMLPPTFGQGTKVEIKSSASTKGPSVFPLAPSSKSTSGGTAALGCLVKDYFPEPVTVSWNSGALTSGVHTFPAVLQSSGLYSLSSVVTVPSSSLGTQTYICNVNHKPSNTKVDKKVEPKSC
notes: 2+1 format; Human IgG1 Fc, knob-into-hole, PGLALA; VL-CH1 chain ends in EPKSC
B7: P1AG1036 GITR(852.2) x FAP (4B9_EPKSCS) (2+1) C-terminal crossfab fusion (bispecific antibody, human IgG1, kappa, L234A L235A)
heavy 1: not shown
heavy 2: B6 heavy 2
light 1: B6 light 1
light 2: EIVLTQSPGTLSLSPGERATLSCRASQSVTSSYLAWYQQKPGQAPRLLINVGSRRATGIPDRFSGSGSGTDFTLTISRLEPEDFAVYYCQQGIMLPPTFGQGTKVEIKSSASTKGPSVFPLAPSSKSTSGGTAALGCLVKDYFPEPVTVSWNSGALTSGVHTFPAVLQSSGLYSLSSVVTVPSSSLGTQTYICNVNHKPSNTKVDKKVEPKSCS
notes: 2+1 format; Human IgG1 Fc, knob-into-hole, PGLALA; VL-CH1 chain ends in EPKSCS
B8: P1AG1039 GITR(852.2) x FAP (4B9_EPKSCG) (2+1) C-terminal crossfab fusion (bispecific antibody, human IgG1, kappa, L234A L235A)
heavy 1: not shown
heavy 2: B6 heavy 2
light 1: B6 light 1
light 2: B7 light 2 with S214G
notes: 2+1 format; Human IgG1 Fc, knob-into-hole, PGLALA; VL-CH1 chain ends in EPKSCG

target: T2, human fibroblast activation protein (huFAP) on NIH/3T3-huFAP clone 19 cells (human, UniProt Q12884 1-760); assay: flow cytometry, NIH/3T3-huFAP clone 19 cells
T2 construct: Mouse NIH/3T3 fibroblasts transfected with vector pETR4921 to express huFAP; also called cell surface FAP
Description: In another experiment, a mixture of 2 × 10⁵ NIH/3T3-huFAP clone 19 cells and HeLa cells in FACS buffer were added to each well of a round-bottom 96-well plates (TPP, Cat. No. 92097) and the binding assay was performed. Cells were first stained 20 min with LIVE/DEAD™ Fixable Aqua Dead Cell Stain (Molecular probes, Cat.No. L34957) in DPBS, followed after one washing step with 200 µL 4° C. […] Afterwards the cells were washed once with 200 µL FACS buffer at 4° C. and resuspended by a short vortex. Cells were further stained with 50 µL/well of 4° C. cold secondary antibody solution containing Phycoerythrin (PE)-conjugated AffiniPure anti-human IgG Fcy-fragment-specific goat IgG F(ab′)2 fragment (Jackson ImmunoResearch, Cat. No. 109-116-098) and incubated for 30 minutes at 4° C. in the dark. Samples were finally resuspended in 100 µL/well FACS-buffer and acquired the same day using with BD Fortessa running FACS Diva software.

EC50 [nM]	Binder
2.7	B1
2.51	B2
1.78	B3
2.52	B4

target: T1, human OX40 on the cell surface …; assay: cell-based or functional assay

EC50 of NFκB activation (luciferase), HeLa_hOx40_NFkB_Luc1, w/ hu FAP [nM]	EC50 of NFκB activation (luciferase), HeLa_hOx40_NFkB_Luc1, w/o [nM]	Binder
0.18	0.23	B5
0.31	3.94	B1
0.21	–	B2
0.19	–	B3
0.24	0.79	B4

target: T1, human OX40 on the cell surface …; assay: flow cytometry, activated human PBMC gated on CD4+ T cells

EC50 [nM]	Binder
0.69	B1
3.19	B2
0.9	B3
3.62	B4

target: T3, FcRn (biotinylated, coupled to streptavidin-sepharose); assay: FcRn affinity chromatography; retention compared to protein standards with known affinities
T3 construct: also called neonatal Fc receptor
Description: For coupling, the prepared receptor was added to streptavidin-sepharose (GE Healthcare). The resulting FcRn-sepharose matrix was packed in a column housing. The column was equilibrated with 20 mM 2-(N-morpholine)-ethanesulfonic acid (MES) and 140 mM NaCl, pH 5.5 (eluent A) at a 0.5 ml/min flow rate. 30 µg of antibody samples were diluted at a volume ratio of 1: 1 with eluent A and applied to the FcRn column. The column was washed with 5 column volumes of eluent A followed by elution with a linear gradient from 20 to 100% 20 mM Tris/HCl and 140 mM NaCl, pH 8.8 (eluent B) in 35 column volumes. The analysis was performed with a column oven at 25° C. The elution profile was monitored by continuous measurement of the absorbance at 280 nm. Retention times were compared to protein standards with known affinities.

FcRn affinity	Binder
-0.22	B1
0.15	B3
-0.14	B4

target: human FAP (soluble second analyte, SPR) (human, UniProt Q12884 26-760); assay: SPR (Biacore T200), biotinylated human GITR Fc(kih) on SA chip, bispecific at 200 nM, then human FAP at 500 nM
Description: The capacity of binding simultaneously human GITR Fc(kih) and human FAP can be assessed by surface plasmon resonance (SPR). All SPR experiments are performed on a Biacore T200 at 25° C. with HBS-EP as running buffer (0.01 M HEPES pH 7.4, 0.15 M NaCl, 3 mM EDTA, 0.005% Surfactant P20, Biacore, Freiburg/Germany). […] Immobilization levels up to 1000 resonance units (RU) are used. The bispecific antibodies targeting GITR and FAP are passed at a concentration range of 200 nM with a flow of 30 µL/minute through the flow cells over 90 seconds and dissociation was set to zero sec. Human FAP is injected as second analyte with a flow of 30 µL/minute through the flow cells over 90 seconds at a concentration of 500 nM. The dissociation is monitored for 120 sec. Bulk refractive index differences are corrected for by subtracting the response obtained in a reference flow cell, where no protein is immobilized.

binding result	Binder
binds	B6
binds	B7
binds	B8

target: T1, human OX40 on the cell surface …; assay: cell-based or functional assay; remark: another data set of the same source

CD25 upregulation on CD4+ T cells, AUC compared to reference compound [%]	EC50 of CD25 upregulation on CD4+ T cells, suboptimal TCR stimulation of human PBMC with NIH/3T3-huFAP cells [nM]	Binder
13	–	B5
100	0.02	B1
99	0.06	B2
106	0.01	B3
100	0.04	B4

— patent US20230227584A1 (published 2023)
